Measurements as given in patent US20180155451A1 (published 2018).
Read-outs that look alike come from different tables or passages of the source.

T1: FcgRIIaR (human, UniProt P12318 34-217)
T1 construct: extracellular domain; R131 allotype; also called FcγRIIa R; FcgRIIa type R; not shown: C-terminal His tag
T1 sequence (looked up): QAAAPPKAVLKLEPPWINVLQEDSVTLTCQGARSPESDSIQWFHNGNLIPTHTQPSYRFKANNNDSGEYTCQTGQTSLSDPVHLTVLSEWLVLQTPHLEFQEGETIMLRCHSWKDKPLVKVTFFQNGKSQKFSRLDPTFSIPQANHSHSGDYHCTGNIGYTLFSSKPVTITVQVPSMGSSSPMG

T2: FcgRIIaH (human, UniProt P12318 34-217)
T2 construct: extracellular domain; H131 allotype; also called FcγRIIa H; FcgRIIa type H; not shown: C-terminal His tag
T2 sequence (looked up): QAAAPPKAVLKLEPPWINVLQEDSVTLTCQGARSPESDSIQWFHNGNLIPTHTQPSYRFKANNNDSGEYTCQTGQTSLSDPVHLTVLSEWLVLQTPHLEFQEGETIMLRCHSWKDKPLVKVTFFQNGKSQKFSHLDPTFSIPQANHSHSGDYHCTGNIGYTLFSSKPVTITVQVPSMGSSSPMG

T3: FcgRIIb (human, UniProt P31994 43-217)
T3 construct: extracellular domain; also called FcγRIIb; CD32B; not shown: C-terminal His tag
T3 sequence (looked up): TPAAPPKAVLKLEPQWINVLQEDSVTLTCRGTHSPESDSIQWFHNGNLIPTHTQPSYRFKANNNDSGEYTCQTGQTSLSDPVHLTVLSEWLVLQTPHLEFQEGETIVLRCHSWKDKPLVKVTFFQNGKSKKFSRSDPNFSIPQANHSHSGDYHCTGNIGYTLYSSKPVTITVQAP


Legend:
FcgRIa [1] = target: T4, FcgRIa (human, UniProt P12314 16-292); experiment: SPR (Biacore), antibody captured on chip, FcgR as analyte
T4 construct: extracellular domain; also called FcγRIa; FcγRI; not shown: C-terminal His tag
T4 sequence (P12314 16-292): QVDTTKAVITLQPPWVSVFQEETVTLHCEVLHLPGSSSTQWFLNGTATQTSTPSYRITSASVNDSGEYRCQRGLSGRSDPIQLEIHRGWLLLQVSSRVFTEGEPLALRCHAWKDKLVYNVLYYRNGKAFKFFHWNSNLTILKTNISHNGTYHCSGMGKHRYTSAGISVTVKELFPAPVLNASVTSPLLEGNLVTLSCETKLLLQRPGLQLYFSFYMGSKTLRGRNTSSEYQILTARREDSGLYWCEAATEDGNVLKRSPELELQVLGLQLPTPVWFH
Method: (§1) The variants described above were assessed for their binding to FcgR according to the method described in Reference Example 8.
(§2) Analysis of interaction between obj ective antibody and the FcγR was carried out using Biacore T100 (GE Healthcare), Biacore T200, Biacore A100, and Biacore 4000. HBS-EP+ (GE Healthcare) was used as the running buffer, and the measurement temperature was set to 25° C. Chips produced by immobilizing the antigen peptide by the amine coupling method to a Series S sensor Chip CM5 (GE Healthcare), chips produced by allowing preliminarily biotinylated antigen peptides to interact with and immobilize onto a Series S Sensor Chip SA (certified) (GE Healthcare), chips produced by immobilizing Protein L (ACTIGEN, BioVision) to Series S Sencor Chip CM5 (GE Healthcare), or chips produced by immobilizing Protein A/G (Thermo Scientific) to Series S Sencor Chip CM5 (GE Healthcare) were used. Antibodies of interest were captured onto these chips, and allowed to interact to each FcγR diluted with running buffer. To regenerate and repeatedly use the chip, the antibodies captured onto the chip were washed off by reacting 10 mM glycine-HCl, pH 1.5.

FcgRIIaR [2] = target: T1, FcgRIIaR; experiment: as above
Method: as §1, §2

FcgRIIaH [3] = target: T2, FcgRIIaH; experiment: as above
Method: as §1, §2

FcgRIIb [4] = target: T3, FcgRIIb; experiment: as above
Method: as §1, §2

FcgRIIIaF [5] = target: T5, FcgRIIIaF (human, UniProt P08637 17-208); experiment: as above
T5 construct: extracellular domain; F158 allotype; also called FcγRIIIa F; not shown: C-terminal His tag
T5 sequence (P08637 17-208): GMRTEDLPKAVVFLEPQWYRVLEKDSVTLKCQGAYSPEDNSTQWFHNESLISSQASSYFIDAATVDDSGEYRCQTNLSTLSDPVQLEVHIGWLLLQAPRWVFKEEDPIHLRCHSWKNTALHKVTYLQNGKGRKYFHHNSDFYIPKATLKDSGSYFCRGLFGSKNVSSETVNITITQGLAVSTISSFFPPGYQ
Method: as §1, §2

FcgRIIIaV [6] = target: T6, FcgRIIIaV (human, UniProt P08637 17-208); experiment: as above
T6 construct: extracellular domain; V158 allotype; also called FcγRIIIa V; not shown: C-terminal His tag
T6 sequence (P08637 17-208 F176V limits assumed): as the sequence (P08637 17-208) above, with F160V counted along it
Method: as §1, §2

FcgRIa [7] = target: T4, FcgRIa; experiment: as above; remark: listed apart in the source
Method: (§3) The variants described above were assessed for their binding to FcγR according to the method described in Reference Example 8.
as §2

FcgRIIaR [8] = target: T1, FcgRIIaR; experiment: as above; remark: listed apart in the source
Method: as §3, §2

FcgRIIaH [9] = target: T2, FcgRIIaH; experiment: as above; remark: listed apart in the source
Method: as §3, §2

FcgRIIb [10] = target: T3, FcgRIIb; experiment: as above; remark: listed apart in the source
Method: as §3, §2

FcgRIIIaF [11] = target: T5, FcgRIIIaF; experiment: as above; remark: listed apart in the source
Method: as §3, §2

FcgRIIIaV [12] = target: T6, FcgRIIIaV; experiment: as above; remark: listed apart in the source
Method: as §3, §2

FcgRIIaR [13] = target: T1, FcgRIIaR; experiment: SPR (Biacore); KD of H240-Kn120/H240-Hl068/L73-k0 divided by KD of the sample
Method: as §1, §2

FcgRIIaH [14] = target: T2, FcgRIIaH; experiment: as above
Method: as §1, §2

FcgRIIb [15] = target: T3, FcgRIIb; experiment: as above
Method: as §1, §2

FcgRIIIaF [16] = target: T5, FcgRIIIaF; experiment: as above
Method: as §1, §2

FcgRIIIaV [17] = target: T6, FcgRIIIaV; experiment: as above
Method: as §1, §2

FcgRIIaR [18] = target: T1, FcgRIIaR; experiment: as above; remark: listed apart in the source
Method: as §3, §2

FcgRIIaH [19] = target: T2, FcgRIIaH; experiment: as above; remark: listed apart in the source
Method: as §3, §2

FcgRIIb [20] = target: T3, FcgRIIb; experiment: as above; remark: listed apart in the source
Method: as §3, §2

FcgRIIIaF [21] = target: T5, FcgRIIIaF; experiment: as above; remark: listed apart in the source
Method: as §3, §2

FcgRIIIaV [22] = target: T6, FcgRIIIaV; experiment: as above; remark: listed apart in the source
Method: as §3, §2

Binder	Kd (FcgRIa [1])	Kd (FcgRIIaR [2])	Kd (FcgRIIaH [3])	Kd (FcgRIIb [4])	Kd (FcgRIIIaF [5])	Kd (FcgRIIIaV [6])	Kd (FcgRIa [7])	Kd (FcgRIIaR [8])	Kd (FcgRIIaH [9])	Kd (FcgRIIb [10])	Kd (FcgRIIIaF [11])	Kd (FcgRIIIaV [12])	Relative KD (FcgRIIaR [13])	Relative KD (FcgRIIaH [14])	Relative KD (FcgRIIb [15])	Relative KD (FcgRIIIaF [16])	Relative KD (FcgRIIIaV [17])	Relative KD (FcgRIIaR [18])	Relative KD (FcgRIIaH [19])	Relative KD (FcgRIIb [20])	also measured
H240-Kn120/H240-Hl068/L73-k0 (antibody, human IgG1, kappa, Heterodimerized anti-epiregulin IgG1-type antibody (knobs-into-holes); also called H240-Kn120/H240-HI068/L73-k0) heavy 1: QDQLVQSGAEVKKPGASVKVSCKASGFNIKDTYIQWVRQAPGQGLEWMGRIDPLRKQTKYREKFEGRVTITADTSTNTAYMELSSLRSEDTAVYYCVRSGREFDYWGQGTLVTVSSASTKGPSVFPLAPSSKSTSGGTAALGCLVKDYFPEPVTVSWNSGALTSGVHTFPAVLQSSGLYSLSSVVTVPSSSLGTQTYICNVNHKPSNTKVDKKVEPKSCDKTHTCPPCPAPEYYWGPMVFLFPPKPKDTLMISRTPEVTCVVVDVSDEDPEVKFNWYVDGVEVHNAKTKPREEQYNATYRVVSVLTVLHQDWLNGKEYKCKVSNKDLPAPIEKTISKAKGQPREPQVCTLPPSRDELTKNQVSLWCLVKGFYPSDIAVEWESNGQPENNYKTTPPVLDSDGSFFLYSKLTVDKSRWQQGNVFSCSVMHEALHNHYTQKSLSLSP heavy 2: QDQLVQSGAEVKKPGASVKVSCKASGFNIKDTYIQWVRQAPGQGLEWMGRIDPLRKQTKYREKFEGRVTITADTSTNTAYMELSSLRSEDTAVYYCVRSGREFDYWGQGTLVTVSSASTKGPSVFPLAPSSKSTSGGTAALGCLVKDYFPEPVTVSWNSGALTSGVHTFPAVLQSSGLYSLSSVVTVPSSSLGTQTYICNVNHKPSNTKVDKKVEPKSCDKTHTCPPCPAPELLGGPSVFLFPPKPKDTLMISRTPEVTCVVVDVSHEEPEVKFNWYVDGVEVHNAKTKPREEQYNSTYRVVSVLTVLHQDWLNGKEYKCKVSNDALPKPIEETISKAKGQPREPQVYTLPPSRCELTKNQVSLSCAVKGFYPSDIAVEWESNGQPENNYKTTPPVLDSDGSFFLVSKLTVDKSRWQQGNVFSCSVMHEALHNHYTQKSLSLSP light: DIQMTQSPSSLSASVGDRVTITCRASQDIHKYIAWYQQKPGQAPRLLIQYTSTLQPGVPSRFSGSGSGTDYTFTISSLQPEDIATYYCLQYEQLRTFGGGTKVEIKRTVAAPSVFIFPPSDEQLKSGTASVVCLLNNFYPREAKVQWKVDNALQSGNSQESVTEQDSKDSTYSLSSTLTLSKADYEKHKVYACEVTHQGLSSPVTKSFNRGEC	0.16 nM	20 nM	41 nM	150 nM	2.2 nM	0.36 nM	0.16 nM	20 nM	41 nM	150 nM	2.2 nM	0.36 nM	1	1	1	1	1	1	1	1	Relative KD (FcgRIIIaF [21]): 1; Relative KD (FcgRIIIaV [22]): 1
H240-Kn120/H240-Hl089/L73-k0 (antibody, human IgG1, kappa, Heterodimerized anti-epiregulin antibody; G236T in the Hl068 chain; also called H240-Kn120/H240-HI089/L73-k0) heavy 1: QDQLVQSGAEVKKPGASVKVSCKASGFNIKDTYIQWVRQAPGQGLEWMGRIDPLRKQTKYREKFEGRVTITADTSTNTAYMELSSLRSEDTAVYYCVRSGREFDYWGQGTLVTVSSASTKGPSVFPLAPSSKSTSGGTAALGCLVKDYFPEPVTVSWNSGALTSGVHTFPAVLQSSGLYSLSSVVTVPSSSLGTQTYICNVNHKPSNTKVDKKVEPKSCDKTHTCPPCPAPEYYWGPMVFLFPPKPKDTLMISRTPEVTCVVVDVSDEDPEVKFNWYVDGVEVHNAKTKPREEQYNATYRVVSVLTVLHQDWLNGKEYKCKVSNKDLPAPIEKTISKAKGQPREPQVCTLPPSRDELTKNQVSLWCLVKGFYPSDIAVEWESNGQPENNYKTTPPVLDSDGSFFLYSKLTVDKSRWQQGNVFSCSVMHEALHNHYTQKSLSLSP heavy 2: QDQLVQSGAEVKKPGASVKVSCKASGFNIKDTYIQWVRQAPGQGLEWMGRIDPLRKQTKYREKFEGRVTITADTSTNTAYMELSSLRSEDTAVYYCVRSGREFDYWGQGTLVTVSSASTKGPSVFPLAPSSKSTSGGTAALGCLVKDYFPEPVTVSWNSGALTSGVHTFPAVLQSSGLYSLSSVVTVPSSSLGTQTYICNVNHKPSNTKVDKKVEPKSCDKTHTCPPCPAPELLTGPSVFLFPPKPKDTLMISRTPEVTCVVVDVSHEEPEVKFNWYVDGVEVHNAKTKPREEQYNSTYRVVSVLTVLHQDWLNGKEYKCKVSNDALPKPIEETISKAKGQPREPQVYTLPPSRCELTKNQVSLSCAVKGFYPSDIAVEWESNGQPENNYKTTPPVLDSDGSFFLVSKLTVDKSRWQQGNVFSCSVMHEALHNHYTQKSLSLSP light: DIQMTQSPSSLSASVGDRVTITCRASQDIHKYIAWYQQKPGQAPRLLIQYTSTLQPGVPSRFSGSGSGTDYTFTISSLQPEDIATYYCLQYEQLRTFGGGTKVEIKRTVAAPSVFIFPPSDEQLKSGTASVVCLLNNFYPREAKVQWKVDNALQSGNSQESVTEQDSKDSTYSLSSTLTLSKADYEKHKVYACEVTHQGLSSPVTKSFNRGEC	0.18 nM	14 nM	41 nM	190 nM	12 nM	5.4 nM	0.18 nM	14 nM	41 nM	190 nM	12 nM	5.4 nM	1.4	1	0.8	0.2	0.1	1.4	1	0.8	Relative KD (FcgRIIIaF [21]): 0.2; Relative KD (FcgRIIIaV [22]): 0.1
